Data from article doi:10.1101/2024.10.25.620210, “The plastid-encoded RNA polymerase structures a logistic chain for light-induced photosynthesis” (bioRxiv, 2024).

Target: T1, β’’ subunit of the Sinapis alba plastid-encoded RNA polymerase (SaPEP) (Sinapis alba, UniProt Q9THV5 1-1384)
T1 construct: source: native, in the PEP purified from Sinapis alba cotyledon chloroplasts (heparin, MonoQ, Superose 6)
T1 sequence (looked up): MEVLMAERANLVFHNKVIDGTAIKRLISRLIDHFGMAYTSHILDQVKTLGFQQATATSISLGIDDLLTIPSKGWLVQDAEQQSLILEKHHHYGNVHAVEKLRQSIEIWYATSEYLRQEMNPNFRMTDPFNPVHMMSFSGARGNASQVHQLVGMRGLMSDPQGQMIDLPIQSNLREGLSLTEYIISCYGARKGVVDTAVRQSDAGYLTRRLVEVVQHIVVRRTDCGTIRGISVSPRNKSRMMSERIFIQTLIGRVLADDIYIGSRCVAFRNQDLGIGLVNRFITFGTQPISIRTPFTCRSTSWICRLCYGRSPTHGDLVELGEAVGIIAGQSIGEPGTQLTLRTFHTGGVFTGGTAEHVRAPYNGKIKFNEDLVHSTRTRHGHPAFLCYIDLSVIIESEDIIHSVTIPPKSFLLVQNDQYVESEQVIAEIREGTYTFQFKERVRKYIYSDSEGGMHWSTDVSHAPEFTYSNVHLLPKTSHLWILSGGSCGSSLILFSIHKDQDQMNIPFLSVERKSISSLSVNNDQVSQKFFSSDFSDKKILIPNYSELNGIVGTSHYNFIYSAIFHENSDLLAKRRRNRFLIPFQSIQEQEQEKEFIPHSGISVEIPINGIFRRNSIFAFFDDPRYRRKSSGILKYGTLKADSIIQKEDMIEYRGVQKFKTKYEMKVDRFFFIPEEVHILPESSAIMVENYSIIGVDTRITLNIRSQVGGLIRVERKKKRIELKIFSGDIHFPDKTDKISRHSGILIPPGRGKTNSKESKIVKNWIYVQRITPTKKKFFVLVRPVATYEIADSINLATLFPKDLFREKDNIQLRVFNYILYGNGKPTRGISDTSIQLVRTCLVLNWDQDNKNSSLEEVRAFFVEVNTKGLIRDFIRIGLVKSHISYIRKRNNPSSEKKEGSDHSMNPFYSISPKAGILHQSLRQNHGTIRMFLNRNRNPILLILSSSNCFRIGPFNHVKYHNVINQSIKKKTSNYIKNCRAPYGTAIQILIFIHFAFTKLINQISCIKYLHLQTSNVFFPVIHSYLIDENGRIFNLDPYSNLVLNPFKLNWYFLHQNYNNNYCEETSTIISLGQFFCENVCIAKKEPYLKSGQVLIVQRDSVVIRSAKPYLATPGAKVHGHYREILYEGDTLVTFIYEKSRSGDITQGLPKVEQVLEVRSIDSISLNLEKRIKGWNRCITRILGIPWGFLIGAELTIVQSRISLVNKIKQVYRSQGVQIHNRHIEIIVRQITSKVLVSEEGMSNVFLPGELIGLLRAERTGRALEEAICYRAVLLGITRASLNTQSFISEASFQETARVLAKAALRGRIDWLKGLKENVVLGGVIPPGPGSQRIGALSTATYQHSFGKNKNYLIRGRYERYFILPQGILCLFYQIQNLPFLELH
Experiment: cryo-EM structure; native 21-subunit SaPEP purified from S. alba cotyledon chloroplasts; graphene oxide grids; consensus map 3.0 Å, multibody and composite maps; open conformation
Settings: both partners purified

B1: β subunit of the Sinapis alba plastid-encoded RNA polymerase (SaPEP) (natural protein, UniProt P46818 1-1078, looked up)
chain: MINAKKMLGDGKEGTSTIPGFNQIQFEGFYRFIDQGLIEELSKFPKIEDIDHEIEFQLFVETYQLVEPLIKERDAVYESLTYSSELYVSAGLIWKTNRNMQEQRIFIGNIPLMNSLGTSIVNGIYRVVINQILQSPGIYYQSELDHNGISVYTGTIISDWGGRLELEIDKKARIWARVSRKQKISILVLSSAMGSNLREILENVCYPEIFLSFLTDKEKKKIGSKENAILEFYQQFSCVGGDPIFSESLCKELQKKFFHQRCELGRIGRRNINWRLNLNIPQNNIFLLPRDILAAADHLIGMKFGMGTLDDMNHLKNKRIRSVADLLQDQLGLALARLENVVKGTIGGAIRHKLIPPTQNLVTSTPLTTTYESFFGFHPLSQVLDRTNPLTQIVHGRKLSYLGPGGLTGRTANFRIRDIHPSHYGRICPIDTSEGINVGLIGSLSIHARIGDWGSLESPFYELVEKSKKAQIRMLFLSPSQDEYYMIAAGNSLALNRGIQEEQVVPARYRQEFLTIAWEEVHLRSIFPFQYFSIGASLIPFIEHNDANRALMSSNMQRQAVPLSRSEKCIVGTGLERQVALDSGVPAIAEHEGKILYTDTEKIILSGNENTLSIPLIMYQRSNKNTCMHQKPQVPRGKCIKKGQILADGAATVGGELALGKNVLVAYMPWEGYNFEDAVLISECLVYGDIYTSFHIRKYEIQTHVTTQGPERITKEIPHLEGRLLRNLDKNGIVMLGSWVETGDILVGKLTPQVAKESSYAPEDRLLRAILGIQVSTSKETCLKLPIGGRGRVIDVRWVQKKGGSSYNPEIIRVYISQKREIKVGDKVAGRHGNKGIISKILPRQDMPYLQDGRPVDMVFNPLGVPSRMNVGQIFECSLGLAGSLLDRHYRIAPFDERYEQEASRKLVFSELYEASKQTANPWVFEPEYPGKSRIFDGRTGDPFEQPVIIGKPYILKLIHQVDDKIHGRSSGHYALVTQQPLRGRSKQGGQRVGEMEVWALEGFGVAHILQEMLTYKSDHIRARQEVLGTTIIGGTIPKPEDAPESFRLLVRELRSLALELNHFLVSEKNFQINRKEV
notes: plastid-encoded β subunit of the S. alba PEP catalytic core; source: native, in the PEP purified from Sinapis alba cotyledon chloroplasts (heparin, MonoQ, Superose 6)
B1: binds.
